The target of experiment [1] is T1, BdSOC1 (Brachypodium distachyon SUPPRESSOR OF OVEREXPRESSOR OF CONSTANS 1) transcription factor (Brachypodium distachyon, 35S-Met label in the pull-down assay (in vitro translated)).
T1 construct: Fused to an EYFP half in BiFC; In vitro translated and 35S-labeled in the pull-down; also called Bradi1g77020; Brachypodium SOC1
As to the kind of experiment: BiFC (split YFP fusions) in Brachypodium protoplasts. The protocol:
(a) in vitro pull-down assays. The BdSOC1 protein was prepared as recombinant BdSOC1-MBP fusion in E. coli cells. The ³⁵S-labeled BdSOC1 polypeptides were prepared by in vitro translation. Part of Coomassie-stained gel is shown (bottom panel). (b) BiFC assays. Partial YFP fusion constructs were transiently expressed in Brachypodium protoplasts. Scale bars=10 μm.
(§1) BiFC assays were carried out as described previously (Hong et al., J. Biol. Chem. 286, 1659-1668, 2011). A full-size SOC1 gene was fused in-frame to the 5′ end of a gene sequence encoding the C-terminal half of EYFP in the pSATN-cEYFP-C1 vector (E3082). Truncated SOC1 gene sequences were fused in-frame to the 5′ end of a gene sequence encoding the N-terminal half of EYFP in the pSATN-nEYFP-C1 vector (E3081). The expression constructs were cotransformed into Arabidopsis protoplasts. Expression of the fusion constructs was monitored by fluorescence microscopy using a Zeiss LSM510 confocal microscope (Carl Zeiss MicroImaging GmbH, Jena, Germany). The BdSOC1 gene constructs were prepared similar to the Arabidopsis SOC1 gene constructs and transiently expressed in Brachypodium protoplasts.

Experiment [2] addresses T2, SOC1 (SUPPRESSOR OF OVEREXPRESSOR OF CONSTANS 1) transcription factor (Arabidopsis thaliana, UniProt O64645 1-214, 35S-Met label in the pull-down assay (in vitro translated)).
T2 construct: Full-size MADS box transcription factor; In yeast two-hybrid it was fused to GAL4 AD or BD (pGADT7/pGBKT7); In BiFC it was fused to a half of EYFP; In the pull-down it was in vitro translated from pGADT7 and 35S-labeled; also called Arabidopsis SOC1; At2g45660
As to the kind of experiment: BiFC (split EYFP fusions) in Arabidopsis protoplasts. The protocol:
as §1

T2 sequence (O64645 whole entry, the tested form may be a part): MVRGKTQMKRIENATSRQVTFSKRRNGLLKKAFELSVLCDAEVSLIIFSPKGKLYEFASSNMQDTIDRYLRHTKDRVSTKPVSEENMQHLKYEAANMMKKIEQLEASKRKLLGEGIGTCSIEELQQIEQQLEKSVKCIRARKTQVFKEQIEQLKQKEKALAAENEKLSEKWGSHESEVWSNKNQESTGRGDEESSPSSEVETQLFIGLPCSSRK
T1 sequence (chain, as listed by the source limits assumed): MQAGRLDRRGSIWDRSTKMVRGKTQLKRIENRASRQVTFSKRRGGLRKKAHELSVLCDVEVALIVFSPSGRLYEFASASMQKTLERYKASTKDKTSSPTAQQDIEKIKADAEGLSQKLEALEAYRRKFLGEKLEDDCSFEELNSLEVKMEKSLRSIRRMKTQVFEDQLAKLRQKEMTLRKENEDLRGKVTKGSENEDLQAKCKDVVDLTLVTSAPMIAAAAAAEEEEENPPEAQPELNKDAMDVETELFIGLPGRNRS

B1: BdS-K truncated BdSOC1 form (peptide)
chain: TAQQDIEKIKADAEGLSQKLEALEAYRRKFLGEKLEDDCSFEELNSLEVKMEKSLRSIRRMKTQVFEDQLAKLRQKEMTLRKENEDLRGK
modifications: 35S-Met label in the pull-down assay (in vitro translated)
notes: An artificial start codon was added
Turning to B1, the binding result in experiment [1] is listed as “binds”.

B2: S-IK truncated SOC1 form (peptide)
chain: KKAFELSVLCDAEVSLIIFSPKGKLYEFASSNMQDTIDRYLRHTKDRVSTKPVSEENMQHLKYEAANMMKKIEQLEASKRKLLGEGIGTCSIEELQQIEQQLEKSVKCIRARKTQVFKEQIEQLKQKEKALAAENEKLSEK
modifications: 35S-Met label in the pull-down assay (in vitro translated)
notes: It was fused to GAL4 domain or EYFP half in yeast and BiFC assays; also called SOC1 a-siPEP
On to B2, for which, in experiment [2], the binding result is reported as “binds”.

B3: S-K truncated SOC1 form (peptide)
chain: VSEENMQHLKYEAANMMKKIEQLEASKRKLLGEGIGTCSIEELQQIEQQLEKSVKCIRARKTQVFKEQIEQLKQKEKALAAENEKLSEK
modifications: 35S-Met label in the pull-down assay (in vitro translated)
notes: It was fused to GAL4 domain or EYFP half in yeast and BiFC assays; also called S-K form; SOC1 a-siPEP
Take B3: the binding result in experiment [2] was “binds”.

B4: BdS-IK truncated BdSOC1 form (peptide)
chain: KAHELSVLCDVEVALIVFSPSGRLYEFASASMQKTLERYKASTKDKTSSPTAQQDIEKIKADAEGLSQKLEALEAYRRKFLGEKLEDDCSFEELNSLEVKMEKSLRSIRRMKTQVFEDQLAKLRQKEMTLRKENEDLRGK
modifications: 35S-Met label in the pull-down assay (in vitro translated)
notes: An artificial start codon was added; also called BdS-MK2 (primer name)
With B4, the binding result in experiment [1] was “binds”.

The values are drawn from patent publication US20160138036A1 (SNU R AND DB FOUNDATION, published 2016).
